# Experimental data from article PMC4309839, “Functional classification and biochemical characterization of a novel rho class glutathione S-transferase in Synechocystis PCC 6803” (FEBS Open Bio, 2014).
# Test system: O=C(O)C(Cl)Cl
# Experiment: purified protein
# Type: biochemical, Synechocystis sp. PCC 6803
# Settings: 1 mM GSH, 0.05-1 mM DCA, 100 mM phosphate pH 7.4, 37 °C
substance,measurement,value
sll1545 (Synechocystis sp. PCC 6803 substr. Kazusa),Km,140 ± 20 µM
same,Vmax,11.8 µmol/min
same,kcat,82.17 ± 0.23 s⁻¹
same,kcat/Km,574600 ± 990 M⁻¹ s⁻¹
